# Test results reported in PMC9891256.
# Molecular target: KREPA2 αH1 group mutant of the negatively charged glutamic and aspartic acid residues (to alanine) (T. brucei)
# Assay: pull-down
substance,measurement,value
kinetoplastid RNA editing ligase 1 (KREL1) full-length (51-469) (enzyme),decrease in binding efficiency against the wild type,75%
